Values of other authors in PMC8043720.

Target: NaV1.7 (Homo sapiens) (UniProt Q15858)
UniProt Q15858, sequence (Q15858 whole entry): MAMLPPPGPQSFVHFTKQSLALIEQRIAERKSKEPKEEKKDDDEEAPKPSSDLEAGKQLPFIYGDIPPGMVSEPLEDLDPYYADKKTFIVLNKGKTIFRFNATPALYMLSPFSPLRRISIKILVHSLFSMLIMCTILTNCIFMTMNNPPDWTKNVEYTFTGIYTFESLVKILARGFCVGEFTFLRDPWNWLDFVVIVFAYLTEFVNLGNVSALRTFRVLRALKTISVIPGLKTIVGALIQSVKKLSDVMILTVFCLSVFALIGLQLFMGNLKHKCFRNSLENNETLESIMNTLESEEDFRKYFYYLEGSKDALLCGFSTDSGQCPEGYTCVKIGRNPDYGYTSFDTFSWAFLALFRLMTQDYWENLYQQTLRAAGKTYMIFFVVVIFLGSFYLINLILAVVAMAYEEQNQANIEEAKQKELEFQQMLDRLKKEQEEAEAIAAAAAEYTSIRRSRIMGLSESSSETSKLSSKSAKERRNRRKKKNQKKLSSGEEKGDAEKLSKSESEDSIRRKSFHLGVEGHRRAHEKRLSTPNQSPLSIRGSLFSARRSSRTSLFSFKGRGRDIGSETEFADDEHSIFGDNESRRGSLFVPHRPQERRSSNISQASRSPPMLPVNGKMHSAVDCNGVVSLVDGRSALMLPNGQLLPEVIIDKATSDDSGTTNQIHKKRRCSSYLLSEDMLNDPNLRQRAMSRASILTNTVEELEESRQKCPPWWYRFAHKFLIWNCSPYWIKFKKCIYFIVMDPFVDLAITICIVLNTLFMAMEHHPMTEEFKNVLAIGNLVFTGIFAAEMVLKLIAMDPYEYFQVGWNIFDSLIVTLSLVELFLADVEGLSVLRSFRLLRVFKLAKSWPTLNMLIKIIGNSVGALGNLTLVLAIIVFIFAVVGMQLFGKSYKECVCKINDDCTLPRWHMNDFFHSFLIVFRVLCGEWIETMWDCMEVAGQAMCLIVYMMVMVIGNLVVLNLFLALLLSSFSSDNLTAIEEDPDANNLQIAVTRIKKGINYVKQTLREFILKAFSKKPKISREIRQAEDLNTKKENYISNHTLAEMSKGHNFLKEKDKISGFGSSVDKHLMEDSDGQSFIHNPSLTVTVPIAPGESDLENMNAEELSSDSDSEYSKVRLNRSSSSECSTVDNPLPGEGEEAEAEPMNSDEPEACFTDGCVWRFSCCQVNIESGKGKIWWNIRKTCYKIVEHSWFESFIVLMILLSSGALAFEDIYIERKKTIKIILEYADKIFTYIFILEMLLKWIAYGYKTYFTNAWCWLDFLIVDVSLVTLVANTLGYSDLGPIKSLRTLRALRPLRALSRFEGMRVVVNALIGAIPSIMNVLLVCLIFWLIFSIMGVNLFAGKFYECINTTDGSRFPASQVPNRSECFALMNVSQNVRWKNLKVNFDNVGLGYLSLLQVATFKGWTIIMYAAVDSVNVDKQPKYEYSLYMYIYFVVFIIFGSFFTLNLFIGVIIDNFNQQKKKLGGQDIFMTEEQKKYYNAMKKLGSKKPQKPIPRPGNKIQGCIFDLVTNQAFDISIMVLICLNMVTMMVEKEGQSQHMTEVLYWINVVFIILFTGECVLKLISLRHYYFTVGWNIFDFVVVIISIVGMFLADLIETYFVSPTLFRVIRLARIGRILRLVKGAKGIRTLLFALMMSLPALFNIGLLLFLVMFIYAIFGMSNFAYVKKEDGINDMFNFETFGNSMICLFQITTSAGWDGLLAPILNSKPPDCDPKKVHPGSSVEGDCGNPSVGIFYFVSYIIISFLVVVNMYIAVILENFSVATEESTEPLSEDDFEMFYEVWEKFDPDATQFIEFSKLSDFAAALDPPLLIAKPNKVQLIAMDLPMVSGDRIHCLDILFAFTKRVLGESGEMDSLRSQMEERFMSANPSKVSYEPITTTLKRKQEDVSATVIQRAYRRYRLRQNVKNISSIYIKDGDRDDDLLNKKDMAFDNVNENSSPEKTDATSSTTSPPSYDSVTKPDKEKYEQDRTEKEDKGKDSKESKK

In the case of HwTx-IV (from UniProt P83303), the Kd is given as 26 nM.
